Laboratory results: patent US20240317865A1, “ANTIBODIES AGAINST INTEGRIN ALPHA 11 BETA 1” (MOMENTA PHARMACEUTICALS, INC., priority 2020, published 2024)
Entries after “also recorded” stand apart in the source; their conditions may differ.

T1: adhesion of CHO-K1 cells expressing human α11 to rat tail type I collagen (Homo sapiens, UniProt Q9UKX5)
T1 construct: expressed in transfected cells; host or cells: CHO-K1
T1 sequence (Q9UKX5 23-1188): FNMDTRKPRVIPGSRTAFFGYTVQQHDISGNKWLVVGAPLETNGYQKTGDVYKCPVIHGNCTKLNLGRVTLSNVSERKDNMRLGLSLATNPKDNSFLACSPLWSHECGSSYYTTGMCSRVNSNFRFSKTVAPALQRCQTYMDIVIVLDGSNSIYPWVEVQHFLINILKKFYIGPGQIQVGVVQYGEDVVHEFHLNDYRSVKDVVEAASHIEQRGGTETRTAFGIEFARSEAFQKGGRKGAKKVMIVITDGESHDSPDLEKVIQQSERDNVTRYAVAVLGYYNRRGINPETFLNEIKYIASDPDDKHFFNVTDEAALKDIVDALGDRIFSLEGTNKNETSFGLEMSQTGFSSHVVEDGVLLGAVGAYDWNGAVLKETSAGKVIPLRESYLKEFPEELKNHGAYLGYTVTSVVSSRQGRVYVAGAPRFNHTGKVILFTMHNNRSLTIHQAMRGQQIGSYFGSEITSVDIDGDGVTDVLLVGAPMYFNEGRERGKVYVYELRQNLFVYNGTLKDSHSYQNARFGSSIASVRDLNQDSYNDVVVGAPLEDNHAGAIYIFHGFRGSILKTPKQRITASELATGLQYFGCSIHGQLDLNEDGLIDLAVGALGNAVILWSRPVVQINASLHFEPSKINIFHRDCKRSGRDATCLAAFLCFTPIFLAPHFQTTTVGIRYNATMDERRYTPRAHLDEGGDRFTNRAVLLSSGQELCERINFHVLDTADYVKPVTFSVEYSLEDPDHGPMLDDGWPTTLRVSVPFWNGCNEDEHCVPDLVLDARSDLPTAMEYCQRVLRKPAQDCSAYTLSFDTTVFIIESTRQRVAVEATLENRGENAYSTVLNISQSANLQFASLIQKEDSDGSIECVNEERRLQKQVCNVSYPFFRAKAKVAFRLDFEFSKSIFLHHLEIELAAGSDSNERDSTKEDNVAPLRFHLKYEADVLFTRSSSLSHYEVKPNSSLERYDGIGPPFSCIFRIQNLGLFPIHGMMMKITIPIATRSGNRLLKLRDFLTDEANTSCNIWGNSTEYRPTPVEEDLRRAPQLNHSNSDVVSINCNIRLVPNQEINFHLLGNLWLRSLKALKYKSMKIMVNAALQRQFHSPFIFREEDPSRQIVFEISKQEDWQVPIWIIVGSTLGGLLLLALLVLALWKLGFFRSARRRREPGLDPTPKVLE

T2: α11β1 I Domain (Homo sapiens, UniProt Q9UKX5)
T2 sequence (Q9UKX5 164-345 limits assumed): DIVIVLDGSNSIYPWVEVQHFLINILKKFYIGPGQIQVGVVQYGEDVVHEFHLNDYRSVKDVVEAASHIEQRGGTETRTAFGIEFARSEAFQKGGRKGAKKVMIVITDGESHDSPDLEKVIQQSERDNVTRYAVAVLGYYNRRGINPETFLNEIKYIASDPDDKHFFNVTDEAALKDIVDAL

B1: 9-E16: mouse anti-α11β1 mAb; VH SEQ ID NO: 111, VL SEQ ID NO: 112 (antibody, V domains shown)
VH: EVQLQQSGPELVKPGASVKISCKASGYTFTDYYMHWVKQKPGQGLEWIGEIYPGSGNPYYNEKFKGKATLTADKSSSSAYMQLSSLTSEDSAVYFCARTSYGRVGTGFAYWGQGTLVTVSA
VL: NFVMTQTPLSLPVSLGDQASISCRSSQSLLHSNGNTYLHWYLQKPGQSPKLLIYKVSNRFSGVPDRFSGSGSGTDFTLKINRVETEDLGIYFCSQSSHVPTFGAGTKLELK
B2: 1994_01_D12: fully human anti-α11β1 mAb from phage display; HCDR3 SEQ ID NO: 267, LCDR3 SEQ ID NO: 334 (antibody, V domains shown)
VH: QVQLVQSGAEVKKPGSSVKVSCKASGYTFTSYGISWVRQAPGQGLEWMGWISAYNGNTNYAQKLQGRVTMTTNTSTSTAYMELRSLRSDDTAVYYCARVTGITGTTIDPWGQGTLVTVSS
VL: DIQMTQSPSSLSASVGDRVTITCRASQSISSYLNWYRQKPGKAPKLLIYAASSLQSGVPSRFSGSGSGTDFTLTISSLQPEDAATYYCQQYDSQSGTFGQGTKLEIK
B3: 8-I14: mouse anti-α11β1 mAb; VH SEQ ID NO: 109, VL SEQ ID NO: 110 (antibody, V domains shown)
VH: EVQLQQSGPELVKPGASVKKSCKASGYTFTDYYMHWVKQKPGQGLEWIGKIYPGSGNTHYNEKFKGKATLTADKSSSTAYMQLSSLTSEDSAVYFCATNYYGYRAMNYWGQGSSVTVSS
VL: DIHLTQSPSSLSASLGERISLTCRASQDIYISLNWFQQKPDGTIKLLIYGTSSLDSGVPKRFSGSRSGSDYSLTISSLESEDFADYYCLQYASSPYTFGGGTKLEIK
B4: 8H8E9: rat anti-α11β1 mAb; VH SEQ ID NO: 149, VL SEQ ID NO: 150 (antibody, V domains shown)
VH: MAVLVLLLCLVTFPSCALSQVQLKESGPGLVQPSQTLSLTCTVSGFSLTSNSVSWVRQAPGKGLEWMGAIWSGGSTDYNSALKSRLSISRDTSKSQVFLKMNSLQTEDTAIYFCTRSHWEPFDYWGQGVMVTVSS
VL: MESQTQALISLLLWVYGTCGDIVMTQSPFSLAVSEGEMVTINCKSSQGLLSSGNQKNYLAWYQQRPGQSPKLLIYYASTRQSGVPDRFIGGGSGTDFTLTISDVQAEDLADYYCLQHYSYPPTFGSGTKLEIK
B5: 6E5C11: rat anti-α11β1 mAb; VH SEQ ID NO: 151, VL SEQ ID NO: 152 (antibody, V domains shown)
VH: MAVLVLLLCLVTFPSCALSQVQLRESGPGLVQPSQTLSLTCTVSGFSLTSNSVTWVRQPPGKGLEWMGAIWSDGSTDYNSTLKSRLSISRDTSKSQVFLKMSSLQTEDTAIYFCTRSHWEPFDYWGQGVMVTVSS
VL: MESQTQALISLLLWVYGTCGDIVMTQSPLSLAVSEGETVTMNCKSSQSLFSSGNQKNYLAWYQQKPGQSPKLLIYYASTRQSGVPDRFIGSGSGTDFTLTISDVQTEDLADYYCLQHYNYPPTFGSGTKLEIK
B6: 24E4G6: rat anti-α11β1 mAb; VH SEQ ID NO: 147, VL SEQ ID NO: 148 (antibody, V domains shown)
VH: MELELSLIFIFSLLKDVQCEVQLVESGGSLVQPGGSLKLSCVASGYTFSNYWMDWVRQSPGKSLEWIGEINTDGRRTNYAPSIKDRFTISRDNAKSTLYLQMSNVKSDDTAIYYCTILRVYPHYFDYWGQGVMVTVSS
VL: MMSPAQFLFLLMLWIQEARGDVVMTQTPPSLSVAIGQSVSISCKSSQSLVYSDGETYLHWFLQSPGRSPKRLIYHVSNLGSGVPDRFSGTGSLTDFTLRISRVEAEDLGVYYCAQTTHFPPTFGAGTKLELK

How the values were obtained:
[1] = target: T1, adhesion of CHO-K1 cells expressing human α11 to rat tail type I collagen; assay: Cell adhesion inhibition (CHO-K1 hu α11 cells to type I collagen, xCelligence); assay type: cell-based; settings: in words
Description: 0.6×10^6 cells/mL were incubated with each antibody at a range of concentrations for 20 minutes at 37° C. E-Plate VIEW 96 PET plate coated with 100 ng/ml type I collagen or PBS overnight at room temperature was blocked in 3% BSA for 1 house at room temperature. After washing the plate with PBS, cell and antibody mixture was added to the wells and the plate was places into an xCelligence machine. Cell adhesion was recorded over 6 hours. The time point of maximum cell adhesion was used for comparison relative to control.
A CHO-K1 hu α11 cell line was used to assess the ability of mAbs to block α11β1-mediated binding to type I collagen. […] In the “Untreated” condition, cells were plated on type I collagen but no antibody was added and in the “Uncoated” condition, cells were seeded onto BSA-coated wells containing no type I collagen. Statistics were performed using one-way ANOVA followed by Dunnett's multiple comparisons test. […] Therefore, it is possible that these mAbs bind on an α11β1 domain that keeps the integrin in a low or intermediate affinity state. […] Nine human mAbs were also tested for their ability to inhibit the binding of human CHO-α11 cells to type I collagen.

[2] = test system: CHO-K1 human α11-mediated rat tail type I collagen gel contraction; assay: Collagen gel contraction assay; assay type: cell-based; settings: compared to untreated condition
Description: 24-well plates were blocked with 2% BSA in PBS overnight at 37° C. The following day, the plates were washed 3 times with PBS before being used in the assay. Human CHO cell lines expressing α11 were harvested and resuspended at 1.25×10^6 in ExpiCHO Expression Medium (Gibco™ Cat #A2910002). The collagen gel solution was prepared by diluting 3 mg/mL stock collagen type I (Gibco™ Collagen I Rat Protein, Tail Cat #A1048301) to 1 mg/mL in the media containing the CHO cells. Sodium hydroxide was added to the solution to neutralize the pH and 400 μL of the collagen solution was added to each well of the 24-well plates. For the wells where the antibodies were included in the collagen gel solution, CHO cells were prepared at 2.5×10^6 and the antibodies were prepared at 2× final concentration in ExpiCHO media. The cells and antibodies were then combined 1:1 before the addition of the stock collagen type 1. The gels were allowed to polymerize for 60 minutes at 37° C. Antibodies were added to the ExpiCHO media, which was then layered on top of the polymerized gel (400 μL/well). The gels were incubated for 6 days at 37° C. before gel contraction was quantified. Images of each well were analyzed using Image J and gel contraction was determined as a percentage of the initial gel area.
Selected exemplary antibodies were tested for the ability to inhibit cell-mediated 3D gel contraction because this ability is directly linked to the functionality of the exemplary antibodies.

α11β1 I Domain = target: T2, α11β1 I Domain; assay: ELISA binding to in-house generated α11β1 I domain; set-up: An in-house generated I domain of α11β1 was used; made in house; settings: in words
Description: 0.25 μg/mL of target antigen (recombinant human or mouse α11β1) was plated in a 96-well plate over night at 4° C. Plates were washed (PBS with 0.1% Tween-20), blocked (PBS with 2% BSA and 0.05% Tween-20) for 1 hour at room temperature and incubated with a range of antibody concentrations for 1 hour at room temperature. Subsequently, plates were washed and incubated with biotinylated anti-rabbit/mouse/human IgG in a 1:1000 dilution buffer and incubated for 1 hour at room temperature. After washing the plates, Streptavidin HRP was added at 1:200 in dilution buffer and incubated for 1 hour at room temperature. Ultra TMB ELISA substrate solution was added and the plates incubated for 5 minutes on a plate shaker. The reaction was stopped by adding stop solution to each well and plates were read at 450 nm.
Data was also collected to determine whether antibodies of interest bind to the I domain of α11β1. An in-house generated I domain of α11β1 was used. […] Mouse antibodies 10-F23, 10-L15, 7-O8, 6-A12, 9-G05 and 9-E16 and rabbit antibodies 7-H12 and 2-D3 were also tested for binding against the in-house generated α11β1 I domain. FIGS. 3A and 3B show graphs illustrating binding data from exemplary mAbs.

Molecule | Inhibition of cell adhesion to type I collagen [1] | Inhibition of CHO-hu α11-mediated collagen gel contraction [2] | Binding to the I domain of α11β1 (α11β1 I Domain)
B1 | decrease cell adhesion to collagen | inhibited | I-domain binders; also recorded: bound the I domain
B2 | – | inhibited | –
B3 | – | inhibited | –
B4 | – | – | medium
B5 | – | – | low
B6 | – | – | did not bind to the I-domain
